Patent US9988424 (DUKE UNIVERSITY, dated 2018)
Positions count from the first letter of the chain named. Read-outs that look alike come from different tables or passages of the source.

How the values were obtained:
Test in all cases: ELISA, OD405
B. 681-7 gp140C [1] = biological target: B. 681-7 gp140C
SIV CPZ US-1 gp140CF [2] = biological target: T1, SIV CPZ US-1 gp140CF (SIVcpz)
T1 construct: also called US-1 SIVCPZ gp140CF
T1 chain: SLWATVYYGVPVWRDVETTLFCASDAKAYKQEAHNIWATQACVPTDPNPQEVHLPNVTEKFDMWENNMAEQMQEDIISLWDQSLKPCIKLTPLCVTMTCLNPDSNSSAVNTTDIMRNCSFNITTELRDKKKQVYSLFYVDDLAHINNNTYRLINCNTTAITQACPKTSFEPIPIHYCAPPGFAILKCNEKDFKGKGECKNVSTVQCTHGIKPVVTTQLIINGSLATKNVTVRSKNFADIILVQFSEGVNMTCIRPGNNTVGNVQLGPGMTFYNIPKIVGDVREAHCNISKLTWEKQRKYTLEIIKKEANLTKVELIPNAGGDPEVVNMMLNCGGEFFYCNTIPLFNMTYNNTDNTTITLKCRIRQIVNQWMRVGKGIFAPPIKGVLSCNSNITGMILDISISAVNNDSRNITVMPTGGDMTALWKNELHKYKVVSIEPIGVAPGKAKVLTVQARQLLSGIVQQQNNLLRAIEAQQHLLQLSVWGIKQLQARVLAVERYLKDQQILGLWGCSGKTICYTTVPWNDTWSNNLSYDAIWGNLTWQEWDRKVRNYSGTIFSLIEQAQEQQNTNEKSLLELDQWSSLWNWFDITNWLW

B.040 gp140C [3] = biological target: B.040 gp140C
gp70 C.1086 V1/V2 [4] = biological target: T2, gp70 C.1086 V1/V2 (HIV-1 V1V2 on murine leukemia virus gp70)
T2 construct: also called C.gp70 1086C V1V2; C.1086gp70V1V2
T2 chain: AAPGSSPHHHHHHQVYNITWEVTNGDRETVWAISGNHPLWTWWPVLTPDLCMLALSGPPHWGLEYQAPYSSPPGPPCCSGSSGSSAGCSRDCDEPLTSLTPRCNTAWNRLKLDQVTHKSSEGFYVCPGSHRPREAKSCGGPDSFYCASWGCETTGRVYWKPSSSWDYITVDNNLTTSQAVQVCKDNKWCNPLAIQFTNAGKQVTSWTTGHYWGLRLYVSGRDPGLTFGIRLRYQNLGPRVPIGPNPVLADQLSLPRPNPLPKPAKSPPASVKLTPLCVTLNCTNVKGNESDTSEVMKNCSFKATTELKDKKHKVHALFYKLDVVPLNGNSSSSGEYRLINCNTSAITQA

G.con gp140CF [5] = biological target: T3, G.con gp140CF
T3 construct: also called G.con.env03 gp140CF

B. 684-6 gp140C [6] = biological target: B. 684-6 gp140C
B.con gp140CF [7] = biological target: T4, B.con gp140CF
T4 construct: also called B.con.env03 gp140CF

B.9021 gp140C = B.9021 gp140C (HIV-1)
A.9004SS V1V2 Tags [8] = biological target: T5, A.9004SS V1V2 Tags
T5 Env construct: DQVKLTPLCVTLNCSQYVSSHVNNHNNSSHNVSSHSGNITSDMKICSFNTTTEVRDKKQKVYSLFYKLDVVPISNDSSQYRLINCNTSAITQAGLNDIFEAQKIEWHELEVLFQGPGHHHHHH

B.63521 gp140C [9] = biological target: B.63521 gp140C
B.Case A2 V1/V2 Tags [10] = biological target: T6, B.Case A2 V1/V2 Tags
T6 Env construct: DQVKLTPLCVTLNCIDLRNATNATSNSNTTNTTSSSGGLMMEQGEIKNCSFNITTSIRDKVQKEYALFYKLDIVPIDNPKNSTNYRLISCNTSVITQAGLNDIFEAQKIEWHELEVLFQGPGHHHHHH

B.63521_V1V2 Tags [11] = biological target: T7, B.63521_V1V2 Tags
T7 Env construct: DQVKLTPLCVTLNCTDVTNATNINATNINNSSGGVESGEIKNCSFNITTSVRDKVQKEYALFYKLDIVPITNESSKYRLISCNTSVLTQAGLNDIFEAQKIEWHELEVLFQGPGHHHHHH

C.CAP206 gp140CF.12 [12] = biological target: C.CAP206 gp140CF.12 (HIV-1)
Con 6 gp120 [13] = biological target: Con 6 gp120
D.9009SA V1V2 Tags [14] = biological target: T8, D.9009SA V1V2 Tags
T8 Env construct: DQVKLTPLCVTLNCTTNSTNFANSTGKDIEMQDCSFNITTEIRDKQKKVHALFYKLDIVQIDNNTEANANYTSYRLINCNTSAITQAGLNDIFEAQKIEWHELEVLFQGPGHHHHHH

B.HXB/BAL gp140CFI [15] = biological target: T9, B.HXB/BAL gp140CFI (HIV-1, UniProt P04578 33-680)
T9 construct: also called B.HxB/Ba gp140 CFI

AE.97CNG2XF gp140CF [16] = biological target: T10, AE.97CNG2XF gp140CF (HIV-1)
T10 construct: also called E.97CNGX2F gp140CF

B.62357 140C [17] = biological target: T11, B.62357 140C
T11 construct: also called B.62357 gp140C

C.1086 gp140 [18] = biological target: T12, C.1086 gp140
T12 construct: also called C.1086gp140C

AE.con gp140CF [19] = biological target: T13, AE.con gp140CF
T13 construct: also called AE.con.env03 gp140CF

B. 681-7 gp140C [20] = biological target: B. 681-7 gp140C; remark: listed apart in the source
SIV CPZ US-1 gp140CF [21] = biological target: T1, SIV CPZ US-1 gp140CF
B.040 gp140C [22] = biological target: B.040 gp140C; remark: listed apart in the source
gp70 C.1086 V1/V2 [23] = biological target: T2, gp70 C.1086 V1/V2
G.con gp140CF [24] = biological target: T3, G.con gp140CF; remark: listed apart in the source
B. 684-6 gp140C [25] = biological target: B. 684-6 gp140C; remark: listed apart in the source
B.con gp140CF [26] = biological target: T4, B.con gp140CF; remark: listed apart in the source
A.9004SS V1V2 Tags [27] = biological target: T5, A.9004SS V1V2 Tags
B.63521 gp140C [28] = biological target: B.63521 gp140C; remark: listed apart in the source
B.Case A2 V1/V2 Tags [29] = biological target: T6, B.Case A2 V1/V2 Tags
B.63521_V1V2 Tags [30] = biological target: T7, B.63521_V1V2 Tags
C.CAP206 gp140CF.12 [31] = biological target: C.CAP206 gp140CF.12 (HIV-1); remark: listed apart in the source
Con 6 gp120 [32] = biological target: Con 6 gp120; remark: listed apart in the source
D.9009SA V1V2 Tags [33] = biological target: T8, D.9009SA V1V2 Tags
B.HXB/BAL gp140CFI [34] = biological target: T9, B.HXB/BAL gp140CFI; remark: listed apart in the source
AE.97CNG2XF gp140CF [35] = biological target: T10, AE.97CNG2XF gp140CF; remark: listed apart in the source
B.62357 140C [36] = biological target: T11, B.62357 140C; remark: listed apart in the source
C.1086 gp140 [37] = biological target: T12, C.1086 gp140; remark: listed apart in the source
AE.con gp140CF [38] = biological target: T13, AE.con gp140CF; remark: listed apart in the source

Measured: binding result

B1: CH01_RUA1 (antibody, V domains shown)
VH: EVQLVESGGGVVRPGGSLRLSCAASGFTFDDYGMSWVRQAPGKGLEWVSGINWNGGSTGYADSVKGRFTISRDNAKNSLYLQMNSLRAEDTALYYCARGTDYTIDDQGIRYQGSGTFWYFDLWGRGTLVTVSS
VL: not shown
notes: also called CH01 UA 1; CH01_UA 1
no binding (tested: 10 ug/ml): B. 681-7 gp140C [1] | SIV CPZ US-1 gp140CF [2] | B.040 gp140C [3] | gp70 C.1086 V1/V2 [4] | G.con gp140CF [5] | B. 684-6 gp140C [6] | B.con gp140CF [7] | B.9021 gp140C | A.9004SS V1V2 Tags [8] | B.63521 gp140C [9] | B.Case A2 V1/V2 Tags [10] | B.63521_V1V2 Tags [11] | C.CAP206 gp140CF.12 [12] | Con 6 gp120 [13] | D.9009SA V1V2 Tags [14] | B.HXB/BAL gp140CFI [15] | AE.97CNG2XF gp140CF [16] | B.62357 140C [17] | C.1086 gp140 [18] | AE.con gp140CF [19]

B2: CH01_RUA2 (antibody, V domains shown)
VH: B1 VH with R110L
VL: not shown
notes: also called CH01 UA 2; CH01_UA 2
no binding (tested: 10 ug/ml): B. 681-7 gp140C [20] | SIV CPZ US-1 gp140CF [21] | B.040 gp140C [22] | gp70 C.1086 V1/V2 [23] | G.con gp140CF [24] | B. 684-6 gp140C [25] | B.con gp140CF [26] | A.9004SS V1V2 Tags [27] | B.63521 gp140C [28] | B.Case A2 V1/V2 Tags [29] | B.63521_V1V2 Tags [30] | C.CAP206 gp140CF.12 [31] | Con 6 gp120 [32] | D.9009SA V1V2 Tags [33] | B.HXB/BAL gp140CFI [34] | AE.97CNG2XF gp140CF [35] | B.62357 140C [36] | C.1086 gp140 [37] | AE.con gp140CF [38]
